Test results as given in patent US20150023971A1.
Blank lines part the entries; values can stand above or below the substance they belong to.

Assays:
[1] = target: purified human Sortilin extracellular domain (produced in stably transfected CHO cells) (human) (UniProt Q99523); experiment: SPR (Biacore) competition, inhibitor prebound, then coinjected with 200 nM proNGF over immobilised Sortilin
[2] = target: purified human Sortilin extracellular domain (produced in stably transfected CHO cells) (human) (UniProt Q99523); experiment: SPR (Biacore), 25-500 nM propeptide over immobilised Sortilin extracellular domain
[3] = target: his-tagged sortilin luminal domain, mutant R166A (human) (UniProt Q99523); experiment: SPR (Biacore), mutant immobilised on CM5, GST-pro-dom-NGF 10-50 nM, 1:1 fit
Chain of his-tagged sortilin luminal domain, mutant R166A (human) (Q99523 other isoform, or with tags, fused parts or gaps R166A R166A limits assumed): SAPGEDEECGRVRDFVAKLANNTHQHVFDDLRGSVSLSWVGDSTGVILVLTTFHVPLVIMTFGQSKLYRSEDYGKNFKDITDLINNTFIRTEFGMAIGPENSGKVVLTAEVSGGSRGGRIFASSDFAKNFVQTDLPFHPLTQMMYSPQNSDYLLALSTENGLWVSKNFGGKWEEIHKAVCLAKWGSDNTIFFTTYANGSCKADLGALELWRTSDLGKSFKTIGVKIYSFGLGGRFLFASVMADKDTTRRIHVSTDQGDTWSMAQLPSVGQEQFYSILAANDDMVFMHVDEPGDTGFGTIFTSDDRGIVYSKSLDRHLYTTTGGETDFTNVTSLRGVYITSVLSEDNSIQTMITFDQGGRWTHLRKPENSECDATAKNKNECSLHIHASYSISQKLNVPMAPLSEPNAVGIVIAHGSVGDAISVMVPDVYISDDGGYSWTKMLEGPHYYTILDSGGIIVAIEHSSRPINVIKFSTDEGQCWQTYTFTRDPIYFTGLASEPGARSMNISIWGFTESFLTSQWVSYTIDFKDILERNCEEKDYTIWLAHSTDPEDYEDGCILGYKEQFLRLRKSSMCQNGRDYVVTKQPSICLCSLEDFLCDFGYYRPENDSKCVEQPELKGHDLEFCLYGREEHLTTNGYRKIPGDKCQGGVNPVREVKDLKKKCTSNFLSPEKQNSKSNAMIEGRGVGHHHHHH

[4] = target: his-tagged sortilin luminal domain, mutant F170A (human) (UniProt Q99523); experiment: as above
Chain of his-tagged sortilin luminal domain, mutant F170A (human) (Q99523 other isoform, or with tags, fused parts or gaps F170A F170A limits assumed): as the sequence (Q99523 other isoform, or with tags, fused parts or gaps R166A R166A limits assumed) above, with A122R, F126A counted along it

[5] = target: his-tagged sortilin luminal domain, mutant K172A (human) (UniProt Q99523); experiment: as above
Chain of his-tagged sortilin luminal domain, mutant K172A (human) (Q99523 other isoform, or with tags, fused parts or gaps K172A K172A limits assumed): as the sequence (Q99523 other isoform, or with tags, fused parts or gaps R166A R166A limits assumed) above, with A122R, K128A counted along it

[6] = target: his-tagged sortilin luminal domain, mutant F174A (human) (UniProt Q99523); experiment: as above
Chain of his-tagged sortilin luminal domain, mutant F174A (human) (Q99523 other isoform, or with tags, fused parts or gaps F174A F174A limits assumed): as the sequence (Q99523 other isoform, or with tags, fused parts or gaps R166A R166A limits assumed) above, with A122R, F130A counted along it

[7] = target: his-tagged sortilin luminal domain, mutant R160A (human) (UniProt Q99523); experiment: as above
Chain of his-tagged sortilin luminal domain, mutant R160A (human) (Q99523 other isoform, or with tags, fused parts or gaps R160A R160A limits assumed): as the sequence (Q99523 other isoform, or with tags, fused parts or gaps R166A R166A limits assumed) above, with R116A, A122R counted along it

[8] = target: his-tagged sortilin luminal domain, mutant F165A (human) (UniProt Q99523); experiment: as above
Chain of his-tagged sortilin luminal domain, mutant F165A (human) (Q99523 other isoform, or with tags, fused parts or gaps F165A F165A limits assumed): as the sequence (Q99523 other isoform, or with tags, fused parts or gaps R166A R166A limits assumed) above, with F121A, A122R counted along it

[9] = target: his-tagged sortilin luminal domain, mutant R163A (human) (UniProt Q99523); experiment: as above
Chain of his-tagged sortilin luminal domain, mutant R163A (human) (Q99523 other isoform, or with tags, fused parts or gaps R163A R163A limits assumed): as the sequence (Q99523 other isoform, or with tags, fused parts or gaps R166A R166A limits assumed) above, with R119A, A122R counted along it

[10] = target: T1, recombinant his-S-tagged pro-domain of human BDNF (residues Ala1-Arg110), from pET-30 Xa/LIC, E. coli (human) (UniProt P23560); experiment: SPR (Biacore 2000), 390 nM Sortilin over immobilised pro-domain (˜300 fmol/mm2)
T1 sequence: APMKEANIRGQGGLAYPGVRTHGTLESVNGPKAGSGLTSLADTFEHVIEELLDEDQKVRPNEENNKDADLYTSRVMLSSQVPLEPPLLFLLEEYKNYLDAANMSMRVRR

Chain of purified human Sortilin extracellular domain (produced in stably transfected CHO cells) (human) (Q99523 78-755 V650M limits assumed): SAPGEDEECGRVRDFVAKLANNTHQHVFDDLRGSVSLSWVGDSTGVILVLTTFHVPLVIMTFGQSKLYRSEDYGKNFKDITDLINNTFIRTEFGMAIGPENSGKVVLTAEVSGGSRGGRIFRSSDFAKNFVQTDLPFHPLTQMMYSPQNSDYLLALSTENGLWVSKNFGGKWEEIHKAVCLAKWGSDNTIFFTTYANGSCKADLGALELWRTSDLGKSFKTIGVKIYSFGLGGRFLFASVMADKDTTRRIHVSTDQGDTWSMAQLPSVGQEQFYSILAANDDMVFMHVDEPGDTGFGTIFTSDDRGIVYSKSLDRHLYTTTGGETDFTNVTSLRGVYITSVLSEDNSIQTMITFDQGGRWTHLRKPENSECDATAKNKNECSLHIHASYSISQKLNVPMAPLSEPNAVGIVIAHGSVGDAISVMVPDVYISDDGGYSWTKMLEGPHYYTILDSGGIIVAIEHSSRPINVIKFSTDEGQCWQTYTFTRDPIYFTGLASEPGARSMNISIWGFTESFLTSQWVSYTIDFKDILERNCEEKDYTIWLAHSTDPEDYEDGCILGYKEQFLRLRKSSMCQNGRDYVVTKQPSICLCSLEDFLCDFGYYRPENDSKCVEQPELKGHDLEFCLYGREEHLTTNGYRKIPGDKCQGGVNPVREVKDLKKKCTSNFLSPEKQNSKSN
Chain of recombinant human Sortilin ectodomain with C-terminal poly-histidine tag (pCEP-Pu, EBNA293/HEK293 cells), ending at Ser725 (Q99523 other isoform, or with tags, fused parts or gaps limits assumed): as the sequence (Q99523 other isoform, or with tags, fused parts or gaps R166A R166A limits assumed) above, with A122R counted along it

percent inhibition of proNGF binding to Sortilin [1]: 85%
Kd [2]: 8 nM
Substance: human NGF-propeptide expressed in E. coli

Kd [3]: 4.38 nM
Kd [4]: 5.59 nM
Kd [5]: 3.91 nM
Kd [6]: 4.27 nM
Kd [7]: 1.89 nM
kon [7]: 147000 M⁻¹ s⁻¹
Kd [8]: 3.86 nM
Kd [9]: 2.7 nM
Substance: GST-NGF-pro-domain fusion protein (Nykjaer et al., Nature 2004) (from UniProt P01138 19-121)

response (RU) [10]: 300 RU
Substance: recombinant human Sortilin ectodomain with C-terminal poly-histidine tag (pCEP-Pu, EBNA293/HEK293 cells), ending at Ser725 (from UniProt Q99523 78-755) (receptor)
